From patent US20020137138A1

Target: human short form of the 5-HT3-A receptor (Genbank accession #D49394) (human) (UniProt P46098)
Assay: cell-based or functional assay

human short form of the 5-HT3-A receptor (Genbank accession #D49394) (human), sequence (P46098 24-478): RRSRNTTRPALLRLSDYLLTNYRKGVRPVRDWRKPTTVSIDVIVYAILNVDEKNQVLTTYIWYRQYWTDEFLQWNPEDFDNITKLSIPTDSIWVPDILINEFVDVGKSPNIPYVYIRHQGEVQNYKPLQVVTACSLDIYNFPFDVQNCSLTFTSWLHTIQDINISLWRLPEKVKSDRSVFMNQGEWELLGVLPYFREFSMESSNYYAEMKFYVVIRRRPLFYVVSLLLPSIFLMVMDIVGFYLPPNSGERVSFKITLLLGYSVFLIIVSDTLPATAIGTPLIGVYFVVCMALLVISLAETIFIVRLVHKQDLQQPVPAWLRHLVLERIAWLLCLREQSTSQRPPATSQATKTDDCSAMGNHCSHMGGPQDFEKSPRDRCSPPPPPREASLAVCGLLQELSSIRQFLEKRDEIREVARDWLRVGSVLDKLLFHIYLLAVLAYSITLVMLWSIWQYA

human 5-HT3-C (human serotonin 5-HT3 receptor modifier subunit 5-HT3-C) (from UniProt Q8WXA8 28-447)
5-HT response, oocytes at a 1.8x fold 5-HT3-C to 5-HT3-A cRNA concentration: 20 % diminished | peak current to 5-HT, oocytes injected with 5-HT3-C and 5-HT3-A(short) at a ratio of 2:1: -0.028 nA | peak response to 10 µM 5-HT (two-electrode voltage clamp, Xenopus oocytes co-injected with 2-fold more 5-HT3-C cRNA, 0.67 ng): 10 % of control | response to 10 µM 5-HT, oocytes injected with 5-HT3-C:5-HT3-A(short) at 10:1 (3.35 ng : 0.33 ng cRNA): -0.01 nA
